Source: patent US10533044B2, “Integrin Antagonists” (The General Hospital Corporation, priority 2014, dated 2020)
No end group written: not given here.

Key:
[1] = system: model tumor growth and angiogenesis; settings: in vivo; cited from earlier work
αVβ3 [2] = target: T1, αVβ3 (Homo sapiens, UniProt P05106+P06756); assay: Binding of knottin-Fc fusion proteins to K562-αVβ3 cells (FACS); settings: Fc fusion in culture supernatant; Ca2+ and Mg2+ 1 mM each
T1 construct: expressed in transfected cells
From the text: The wild type and modified versions were transiently expressed in HEK293 cells grown in 3% FBS. Culture supernatant contained equivalent amounts of the respective fusion proteins (verified by ELISA) and of the correct size (using western blotting with anti-his tag antibody). Binding of each to K562 cells expressing recombinant αVβ3 (K562-αVβ3) was examined using FACS as described in the methods section of the above-referenced paper, except that the unlabeled bound knottin was detected by adding fluorescienated anti-human Fc mAb.
Wild type and P/W substituted forms of knottin 2.5 F were expressed as Fc fusion proteins in mammalian cells and their abilities to bind cellular αVβ3 and to express the LIBS mAb AP5 were compared. αVβ3-K562 (1×10^6) cells were suspended in 100 μl of culture supernatant containing equivalent amounts (based on ELISA) of WT knottin 2.5 F-Fc fusion protein, knottin 2.5 F (P/W)-Fc, WT knottin 2.5 D-Fc, or knottin 2.5 F (A/W)-Fc or medium alone and incubated for 30 min; 25° C., washed in 400 μl buffer and fluoresceinated anti-FC-specific antibody added for an additional 30 min at 4° C. Cells were washed, resuspended, fixed in 4% paraformaldehyde, and analyzed using FACSCalibur or BD-LSRII flow cytometers (BD Biosciences). Binding of soluble knottin dimers to αVβ3-K562 cells was expressed as mean fluorescence intensity (MFI), as determined using FlowJo software. […]

αVβ3 [3] = target: T1, αVβ3; assay: AP5 epitope expression on K562-αVβ3 cells preincubated with knottin-Fc; assay type: cell-based; settings: Ca2+ and Mg2+ 1 mM each
Experimental: Cells were washed, resuspended, fixed in 4% paraformaldehyde, and analyzed using FACSCalibur or BD-LSRII flow cytometers (BD Biosciences). Binding of soluble knottin dimers to αVβ3-K562 cells was expressed as mean fluorescence intensity (MFI), as determined using FlowJo software. […] Alexa647-labeled mAb AP5 Fab (10 μg/ml) was added, and cells incubated for an additional 30 min before washing. APC-labeled goat anti-mouse Fc-specific antibody was added to anti-LIBS-1- or anti-LIBS-6-bound M21 cells for an additional 30 min at 4° C. Cells were then washed, resuspended, fixed in 4% paraformaldehyde and analyzed by flow cytometry. AP5 epitope expression was measured and expressed as MFI.
Cells were washed, resuspended, fixed in 4% paraformaldehyde, and analyzed using FACSCalibur or BD-LSRII flow cytometers (BD Biosciences). Binding of soluble knottin dimers to αVβ3-K562 cells was expressed as mean fluorescence intensity (MFI), as determined using FlowJo software. […] APC-labeled goat anti-mouse Fe-specific antibody was added to anti-LIBS-1- or anti-LIBS-6-bound M21 cells for an additional 30 min at 4° C. Cells were then washed, resuspended, fixed in 4% paraformaldehyde and analyzed by flow cytometry. AP5 epitope expression was measured and expressed as MFI.

K562-αVβ3 cells = assay: Mn2+-induced spreading of K562-αVβ3 cells on immobilized FN forms; assay type: cell-based, human; settings: 1 mM Mn2+
Experimental: The various FN-coated surfaces were washed with PBS, and blocked with bovine serum albumin (5% w/v in PBS; lh; 25° C.). K562-αVβ3 cells (5×10^4) were added (in TBS; 1 mM Mn^2+), in the absence or presence of LM609 mAb (10 μg/ml, added 15 min prior to plating). Cells were incubated (2 h; 37° C.), washed three times in warm TBS and fixed with 4% formaldehyde (in PBS; 25° C.; 10 min). Images were captured using an inverted phase microscope (Zeiss Axiovert 40CFL) fitted with a powershot G12 Cannon Camera. ImageJ 1.48a software (National Institutes of Health, USA) was used to quantify cell spreading of 300-400 random selected cells. Spread cells were clearly distinguishable from round, refringent non-spread cells. Representative phase contrast images were collected using Zeiss Axiovert 35 inverted microscope using a CCD camera and Spot software (Diagnostics Instruments). Adhesion of transiently transfected HEK293 expressing equivalent amounts of αVβ3(N339/S) or αV(N266/Q)β3(N339/S) was done by adding cells (3×10^4) in TBS containing Ca^2+/Mg^2+ and 0.1% BSA (w/v) to FN-coated surfaces (45 min; 25° C.). Non-adherent cells were removed by washing and adherent cells fixed (2% paraformaldehyde; 30 min; 25° C.), stained (0.1% Crystal Violet; 30 min; 25° C.), washed with water, air dried and then solubilized (1% SDS). Relative cell attachment was estimated by absorbance of the lysates at 540 nm measured using a SpectraMax M2E microplate reader (Molecular Devices, Sunnyvale, Calif.).

αVβ3(N339/S) = target: T2, αVβ3(N339/S) (Homo sapiens, UniProt P05106+P06756, N365S); assay: Binding of fluoresceinated FN10 to WT αVβ3 or αVβ3(N339/S) expressed on HEK293T cells
T2 construct: pcDNA3 plasmids encoding full-length WT αVβ3, αVβ3(Y122/A), αVβ3(N339/S); expressed in transfected cells; host or cells: HEK293T (transient)
Experimental: The human erythroleukemia cell line K562 stably expressing recombinant αVβ3 (K562-αVβ3) and the human melanoma cell line M21, which constitutively expresses αVβ3, have been previously described (Xiong, J. P. et al. The Journal of Cell Biology 186, 589-600 (2009); and Mitjans, F. et al. J Cell Sci 108 (Pt 8), 2825-2838 (1995)). Cells were maintained in Iscove's modified Dulbecco's medium (K562-αVβ3) or RPMI1640 (M21), supplemented with 10% fetal calf serum, 2 mM L-glutamine, penicillin and streptomycin, plus G418 (0.5-1.0 mg/ml) in cultured K562-αVβ3. HEK293T (ATCC) were transiently co-transfected with pcDNA3 plasmids encoding full-length WT αVβ3, αVβ3(Y122/A), αVβ3(N339/S), or αV(N266/Q)β3(N339/S) using Lipofectamine 2000 reagent (Invitrogen) according to the manufacturer's protocol.
In cellular and biochemical assays where calcium, magnesium or manganese ions were used, they were each at final concentrations of 1 mM. […] Binding of soluble FN10 to αVβ3^+ cells was expressed as mean fluorescence intensity (MR), as determined using the CellQuest software (BD). […] Mean and SD from independent experiments were calculated, and compared using Student's t test.

αVβ3 ectodomain = target: T3, αVβ3 ectodomain (Homo sapiens, UniProt P05106+P06756); assay: Hydrodynamic shift assay (molecular sieve chromatography, Stokes radius); settings: in Mn2+ (6.3 nm without ligand)
T3 construct: αVβ3 ectodomain was incubated alone or with FN10; made in house; host or cells: insect cells
Experimental: αVβ3 ectodomain was incubated alone or with FN10 (at 2:1 FN10/integrin molar ratio) in 145 mM NaCl and 25 mM Tris-HCl, pH 7.4 (TBS) containing Ca^2+, Ca^2+/Mg^2+ or Mn^2+ (20° C.; 1.5 h). Aliquots were taken and chromatographed at room temperature at this time point on a precalibrated Superdex S-200 GL column equilibrated buffer with the same metal ion composition used during the incubation, and Stokes radii were derived as described previously (Xiong, J. P. et al. The Journal of Cell Biology 186, 589-600 (2009)). The elution profiles resolved by molecular sieve chromatography were monitored in-line by UV adsorption at 280 nm. Unliganded ±FN10-treated αVβ3 species were resolved as single discrete symmetrical peaks. Excess FN10 served as an internal standard. Identity of resolved peaks was formally confirmed by SDS-PAGE.

αVβ5 = αVβ5 (Homo sapiens, UniProt P06756+P18084); settings: Moore et al, 2013; cited from earlier work
α5β1 = α5β1 (Homo sapiens, UniProt P05556+P08648); settings: Moore et al, 2013; cited from earlier work
αVβ3 [4] = target: T1, αVβ3; assay: Binding of fluoresceinated fluid-phase FN10 to K562-αVβ3 cells (flow cytometry); settings: 1 mM Ca2+/Mg2+; fold over background
Experimental: In cellular and biochemical assays where calcium, magnesium or manganese ions were used, they were each at final concentrations of 1 mM. Cells stably (K562) or transiently (I-fEK293T) expressing WT or mutant forms of αVβ3 were preincubated (30 min; 0° C.) in the dark with Alexa647-conjugated AP3 (10 μg/ml), washed in Hepes-buffered saline (20 mM Hepes, 150 mM NaCl, pH 7.4) containing BSA (0.1% w/v; washing buffer, WB), incubated in 10 mM EDTA in WB (5 min; 25° C.), then washed three times in WB. […] Binding of soluble FN10 to αVβ3^+ cells was expressed as mean fluorescence intensity (MR), as determined using the CellQuest software (BD). Binding of soluble FN10 to HEK293T was normalized by dividing its MFI by the MFI of Alexa647-conjugated AP3 to the same cells and multiplying by 100. Mean and SD from independent experiments were calculated, and compared using Student's t test.

αIIbβ3^N/S = target: T4, αIIbβ3^N/S (Homo sapiens, UniProt P05106+P08514, N365S); assay: Binding of fluorescein-tagged hFN10-G to preactivated cellular αIIbβ3(N/S); settings: N339 to S activation
T4 construct: expressed in transfected cells
From the text: (§1) FIG. 9. […] (A) Superposed RGD-containing loops of hFN10 (gray in original), hFN10-G (pink in original) onto the RGD loop of frog γC (green in original). Sphere represents the metal ion at MIDAS.

αVβ3^N/S = αVβ3^N/S (Homo sapiens, UniProt P05106+P06756, N365S); assay: Binding of fluorescein-tagged hFN10-G to preactivated cellular αVβ3(N/S); parameters: pcDNA3 plasmids encoding full-length WT αVβ3, αVβ3(Y122/A), αVβ3(N339/S); expressed in transfected cells; host or cells: HEK293T (transient); settings: N339 to S activation
From the text: as §1

T1 sequence (P06756 31-889 limits assumed): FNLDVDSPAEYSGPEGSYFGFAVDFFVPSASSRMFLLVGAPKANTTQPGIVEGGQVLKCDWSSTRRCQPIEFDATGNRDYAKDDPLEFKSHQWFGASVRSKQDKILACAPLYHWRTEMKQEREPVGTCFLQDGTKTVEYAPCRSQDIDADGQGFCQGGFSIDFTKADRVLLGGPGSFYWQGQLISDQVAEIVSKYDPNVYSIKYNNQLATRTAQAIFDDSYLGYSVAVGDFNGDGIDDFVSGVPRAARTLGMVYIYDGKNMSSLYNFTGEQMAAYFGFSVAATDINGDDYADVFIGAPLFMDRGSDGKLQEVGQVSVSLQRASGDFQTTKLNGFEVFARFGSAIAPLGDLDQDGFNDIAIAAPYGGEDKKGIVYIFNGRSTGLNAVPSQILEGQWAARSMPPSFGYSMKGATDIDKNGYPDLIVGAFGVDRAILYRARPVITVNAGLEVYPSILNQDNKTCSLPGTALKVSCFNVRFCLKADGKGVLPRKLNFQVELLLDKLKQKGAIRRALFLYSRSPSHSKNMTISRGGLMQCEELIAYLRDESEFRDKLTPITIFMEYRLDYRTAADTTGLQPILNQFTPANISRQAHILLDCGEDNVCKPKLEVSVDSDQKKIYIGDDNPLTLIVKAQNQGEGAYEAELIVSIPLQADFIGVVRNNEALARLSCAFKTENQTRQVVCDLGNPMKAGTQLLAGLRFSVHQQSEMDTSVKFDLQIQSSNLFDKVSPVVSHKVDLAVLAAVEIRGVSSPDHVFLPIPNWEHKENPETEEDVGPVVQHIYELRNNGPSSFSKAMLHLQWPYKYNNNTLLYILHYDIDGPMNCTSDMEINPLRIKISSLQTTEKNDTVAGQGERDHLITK
T1 sequence (P06756 891-1048 partner limits assumed): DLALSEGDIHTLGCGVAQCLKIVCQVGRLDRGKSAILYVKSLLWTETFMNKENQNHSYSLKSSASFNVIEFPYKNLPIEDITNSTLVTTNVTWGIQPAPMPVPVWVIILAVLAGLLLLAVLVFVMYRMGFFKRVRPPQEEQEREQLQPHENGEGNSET
T1 sequence (P05106 27-788): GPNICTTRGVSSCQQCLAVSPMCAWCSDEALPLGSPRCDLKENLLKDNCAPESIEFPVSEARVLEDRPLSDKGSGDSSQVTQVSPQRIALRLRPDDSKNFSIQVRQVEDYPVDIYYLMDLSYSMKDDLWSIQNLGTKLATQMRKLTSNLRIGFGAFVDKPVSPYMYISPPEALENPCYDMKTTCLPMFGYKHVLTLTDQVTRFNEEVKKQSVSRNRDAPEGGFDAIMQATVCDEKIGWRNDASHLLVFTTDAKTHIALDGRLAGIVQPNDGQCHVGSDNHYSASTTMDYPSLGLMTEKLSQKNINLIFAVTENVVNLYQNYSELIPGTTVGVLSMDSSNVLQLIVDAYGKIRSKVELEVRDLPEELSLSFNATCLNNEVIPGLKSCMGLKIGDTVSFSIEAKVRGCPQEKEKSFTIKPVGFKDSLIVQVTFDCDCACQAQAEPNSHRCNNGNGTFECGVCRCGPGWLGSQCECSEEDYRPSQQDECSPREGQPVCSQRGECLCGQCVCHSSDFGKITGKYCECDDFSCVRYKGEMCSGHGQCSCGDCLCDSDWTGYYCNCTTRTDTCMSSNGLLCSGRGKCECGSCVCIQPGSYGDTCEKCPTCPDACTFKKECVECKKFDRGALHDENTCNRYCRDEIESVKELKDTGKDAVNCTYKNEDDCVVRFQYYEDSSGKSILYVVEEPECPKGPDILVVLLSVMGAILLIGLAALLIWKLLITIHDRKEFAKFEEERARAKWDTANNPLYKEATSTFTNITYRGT
T3 sequence (P06756 31-987): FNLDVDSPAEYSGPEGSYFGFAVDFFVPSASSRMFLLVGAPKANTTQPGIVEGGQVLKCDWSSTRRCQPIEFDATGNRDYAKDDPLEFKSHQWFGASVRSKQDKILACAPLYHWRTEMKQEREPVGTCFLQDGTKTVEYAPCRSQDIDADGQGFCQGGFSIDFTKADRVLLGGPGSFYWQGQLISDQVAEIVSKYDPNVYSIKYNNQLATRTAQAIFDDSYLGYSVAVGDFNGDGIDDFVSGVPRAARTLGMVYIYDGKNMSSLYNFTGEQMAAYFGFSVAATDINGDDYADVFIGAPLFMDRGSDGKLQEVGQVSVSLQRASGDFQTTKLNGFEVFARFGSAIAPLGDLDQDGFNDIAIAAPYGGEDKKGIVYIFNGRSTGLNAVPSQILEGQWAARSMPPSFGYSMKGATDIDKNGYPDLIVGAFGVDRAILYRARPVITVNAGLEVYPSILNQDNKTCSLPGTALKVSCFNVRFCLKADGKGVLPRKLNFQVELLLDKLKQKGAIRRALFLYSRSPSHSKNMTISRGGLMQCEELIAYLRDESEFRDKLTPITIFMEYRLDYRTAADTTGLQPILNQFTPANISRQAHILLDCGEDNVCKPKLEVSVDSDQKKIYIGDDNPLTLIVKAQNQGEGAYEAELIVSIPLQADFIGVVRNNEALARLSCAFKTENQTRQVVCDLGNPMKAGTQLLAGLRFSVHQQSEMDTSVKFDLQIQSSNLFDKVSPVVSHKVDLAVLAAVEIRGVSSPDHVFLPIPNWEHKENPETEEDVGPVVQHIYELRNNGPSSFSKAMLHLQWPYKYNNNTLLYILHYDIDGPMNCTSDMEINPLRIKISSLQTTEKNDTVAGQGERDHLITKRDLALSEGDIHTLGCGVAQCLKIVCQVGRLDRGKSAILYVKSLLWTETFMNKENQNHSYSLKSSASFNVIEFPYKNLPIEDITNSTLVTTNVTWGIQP
T3 sequence (P05106 27-718): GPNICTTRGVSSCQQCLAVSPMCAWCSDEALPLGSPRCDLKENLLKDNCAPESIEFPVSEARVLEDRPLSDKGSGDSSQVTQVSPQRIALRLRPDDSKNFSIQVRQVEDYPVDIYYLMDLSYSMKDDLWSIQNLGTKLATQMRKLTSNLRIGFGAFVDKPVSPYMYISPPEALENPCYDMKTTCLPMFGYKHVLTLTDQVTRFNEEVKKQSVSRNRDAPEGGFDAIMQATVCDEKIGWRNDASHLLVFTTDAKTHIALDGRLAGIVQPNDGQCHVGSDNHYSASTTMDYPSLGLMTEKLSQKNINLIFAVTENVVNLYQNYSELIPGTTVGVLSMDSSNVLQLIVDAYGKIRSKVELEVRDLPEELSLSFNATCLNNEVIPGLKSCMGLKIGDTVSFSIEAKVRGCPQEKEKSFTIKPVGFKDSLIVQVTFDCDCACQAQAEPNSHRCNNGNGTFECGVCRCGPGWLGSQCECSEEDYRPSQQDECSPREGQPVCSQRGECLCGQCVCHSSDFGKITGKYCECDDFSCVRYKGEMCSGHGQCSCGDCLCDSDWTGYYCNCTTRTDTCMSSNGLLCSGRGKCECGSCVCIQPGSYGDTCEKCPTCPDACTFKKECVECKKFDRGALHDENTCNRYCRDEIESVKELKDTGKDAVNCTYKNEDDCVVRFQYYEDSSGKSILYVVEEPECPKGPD
T2 sequence (P06756 31-889 limits assumed): as the sequence (P06756 31-889 limits assumed) above
T2 sequence (P06756 891-1048 partner limits assumed): as the sequence (P06756 891-1048 partner limits assumed) above
T2 sequence (P05106 27-788 N365S): as the sequence (P05106 27-788) above, with N339S counted along it
Sequence of αVβ3^N/S (P06756 31-889 limits assumed): as the sequence (P06756 31-889 limits assumed) above
Sequence of αVβ3^N/S (P06756 891-1048 partner limits assumed): as the sequence (P06756 891-1048 partner limits assumed) above
Sequence of αVβ3^N/S (P05106 27-788 N365S): as the sequence (P05106 27-788) above, with N339S counted along it
Sequence of αVβ5 (P06756 31-889 limits assumed): as the sequence (P06756 31-889 limits assumed) above
Sequence of αVβ5 (P06756 891-1048 partner limits assumed): as the sequence (P06756 891-1048 partner limits assumed) above
Sequence of αVβ5 (P18084 24-799): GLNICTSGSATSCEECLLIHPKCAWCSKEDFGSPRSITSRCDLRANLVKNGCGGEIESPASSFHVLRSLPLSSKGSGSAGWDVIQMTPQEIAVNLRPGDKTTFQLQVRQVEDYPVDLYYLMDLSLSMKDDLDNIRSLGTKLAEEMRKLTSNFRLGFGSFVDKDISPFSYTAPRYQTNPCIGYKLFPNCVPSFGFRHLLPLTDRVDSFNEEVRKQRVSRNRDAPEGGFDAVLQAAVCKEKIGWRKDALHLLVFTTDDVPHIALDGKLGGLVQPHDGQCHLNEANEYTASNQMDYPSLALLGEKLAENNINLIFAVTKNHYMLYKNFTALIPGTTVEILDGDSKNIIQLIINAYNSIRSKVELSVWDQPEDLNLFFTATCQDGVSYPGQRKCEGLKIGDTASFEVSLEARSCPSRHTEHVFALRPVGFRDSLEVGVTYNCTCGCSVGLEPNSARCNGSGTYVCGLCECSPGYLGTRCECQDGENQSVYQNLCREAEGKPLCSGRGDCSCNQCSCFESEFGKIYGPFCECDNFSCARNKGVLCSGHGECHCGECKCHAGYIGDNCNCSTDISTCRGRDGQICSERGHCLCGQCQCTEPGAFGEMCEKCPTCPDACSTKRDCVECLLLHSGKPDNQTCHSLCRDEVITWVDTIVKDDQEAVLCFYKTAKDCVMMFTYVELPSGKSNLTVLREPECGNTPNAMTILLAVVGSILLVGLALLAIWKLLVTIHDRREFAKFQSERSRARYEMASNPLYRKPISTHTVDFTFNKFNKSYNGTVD

Molecule: CC(C)[C@H]1C(=O)N[C@@H](CCCN=C(N)N)C(=O)NCC(=O)N[C@@H](CC(=O)O)C(=O)N[C@H](Cc2ccccc2)C(=O)N1C [cilengitide]
- Effect on model tumor growth and angiogenesis [1]: paradoxically stimulated model tumor growth and angiogenesis

Molecule: P/W knottin 2.5 F: knottin 2.5 F with Proline 10 replaced by Trp, expressed as Fc fusion protein (GCPRPRGDNWPLTCSQDSDCLAGCVCGPNGFCG; disulfide (positions not given here); also: cystine-knot disulfide bonds, pairing not given here, Fc fusion protein)
- Binding to cellular αVβ3 (K562-αVβ3) (αVβ3 [2]): equivalent
- AP5 expression / integrin activation on K562-αVβ3 (αVβ3 [3]): suppressed AP5 expression

Molecule: full-length FN: full-length human plasma fibronectin from Sigma-Aldrich
- Spreading of K562-αVβ3 cells on immobilized ligand (K562-αVβ3 cells): extensive spreading

Molecule: hFN10: mutant high affinity form of the 10th type-III domain of fibronectin, loop PRGDWNEG, SEQ ID NO: 9
- Binding to WT αVβ3 versus active αVβ3(N339/S) (αVβ3(N339/S)): similar
- Stokes' radius (Rs) of αVβ3 complex (αVβ3 ectodomain): 6.3 nm
- Spreading of K562-αVβ3 cells on immobilized ligand (K562-αVβ3 cells): little spreading

Molecule: knottin 2.5 F: cysteine-knot peptide, chemically synthesized, published sequence (Kimura et al 2009) (GCPRPRGDNPPLTCSQDSDCLAGCVCGPNGFCG)
- Binding to integrin αVβ5 (αVβ5): binds
- Binding to integrin α5β1 (α5β1): binds

Molecule: wtFN10: 10th type-III RGD-domain of wild-type human fibronectin, loop GRGDSPAS, SEQ ID NO: 20 [reference compound]
- Binding of fluoresceinated FN10 to K562-αVβ3 (αVβ3 [4]): low background
- Stokes' radius (Rs) of αVβ3 complex (αVβ3 ectodomain): 6.6 nm
- Spreading of K562-αVβ3 cells on immobilized ligand (K562-αVβ3 cells): extensive spreading

B1: hFN10-G: hFN10 with a glycine inserted after proline 1492, SEQ ID NO: 29 (protein)
chain: SDVPRDLEVVAATPTSLLISWDAPAVTVRYYRITYGETGGNSPVQEFTVPGSKSTATISGLKPGVDYTITVYAVTPGRGDWNEGSKPISINY
- Binding to preactivated cellular αIIbβ3^N/S (αIIbβ3^N/S): some binding
- Binding to preactivated cellular αVβ3^N/S (αVβ3^N/S): did not bind
